This note sets out measurements from article PMC3826599.

As a reminder, the stoichiometry N is a count of units in the complex or per binding partner.

Test [1] addresses Giardia lamblia macrophage migration inhibitory factor (Giardia lamblia ATCC 50803). Briefly: SEC.
For test [2] the target is unchanged. Briefly: crystal structure.

Regarding “Giardia lamblia macrophage migration inhibitory factor (natural protein)”, the stoichiometry N in test [1] and in test [2] was 3 in each case.
